Earlier results as cited in article PMC9008539.
pKd: −log10 of the molar value.

Molecular target: PfRh5 (Plasmodium falciparum) (UniProt Q8IFM5)
Sequence (Q8IFM5 25-526): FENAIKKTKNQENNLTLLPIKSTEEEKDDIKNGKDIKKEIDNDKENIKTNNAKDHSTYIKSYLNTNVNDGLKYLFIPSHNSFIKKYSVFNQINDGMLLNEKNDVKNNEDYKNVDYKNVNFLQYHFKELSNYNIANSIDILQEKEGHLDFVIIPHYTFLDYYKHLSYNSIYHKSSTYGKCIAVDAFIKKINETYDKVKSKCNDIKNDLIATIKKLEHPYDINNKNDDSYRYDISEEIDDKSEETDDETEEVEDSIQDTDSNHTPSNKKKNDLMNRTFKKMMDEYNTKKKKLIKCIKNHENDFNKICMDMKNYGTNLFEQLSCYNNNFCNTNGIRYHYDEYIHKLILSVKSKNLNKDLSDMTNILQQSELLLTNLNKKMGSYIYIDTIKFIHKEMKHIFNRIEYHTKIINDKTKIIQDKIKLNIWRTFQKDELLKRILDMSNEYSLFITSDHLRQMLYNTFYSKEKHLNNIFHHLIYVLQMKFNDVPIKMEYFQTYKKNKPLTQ

Substance: PfRipr (from UniProt O97302)
- pKd: 9.32
